Assay results as given in PMC12623744 (Scientific Reports, 2025).
Positions of bridges follow the written chain, without caps; N, C: chain ends. Non-standard residues stand in square brackets, D forms with d. Residues, ends and D or L forms follow the SMILES beside them. Nle = CCCC[C@H](N)C(=O)O

T1: HVEM-His protein (UniProt Q92956 39-202, labelled with RED-tris-NTA 2nd Generation dye on the His tag (spectral shift only))
T1 construct: Herpes virus entry mediator (HVEM); No catalogue number printed; also called herpes virus entry mediator; source: bought: ACROBiosystems
T1 sequence (looked up): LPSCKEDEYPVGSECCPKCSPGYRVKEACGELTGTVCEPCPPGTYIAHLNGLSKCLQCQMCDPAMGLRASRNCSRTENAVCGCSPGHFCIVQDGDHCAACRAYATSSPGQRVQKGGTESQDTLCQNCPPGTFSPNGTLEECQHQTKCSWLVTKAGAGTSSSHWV

B1: light4 (peptide)
peptide: Ac-TICHGLYKRTPRYPEELELLVSCQS-NH2
modifications: disulfide 3-23
SMILES: CC[C@H](C)[C@H](NC(=O)[C@@H](NC(C)=O)[C@@H](C)O)C(=O)N[C@H]1CSSC[C@@H](C(=O)N[C@@H](CCC(N)=O)C(=O)N[C@@H](CO)C(N)=O)NC(=O)[C@H](CO)NC(=O)[C@H](C(C)C)NC(=O)[C@H](CC(C)C)NC(=O)[C@H](CC(C)C)NC(=O)[C@H](CCC(=O)O)NC(=O)[C@H](CC(C)C)NC(=O)[C@H](CCC(=O)O)NC(=O)[C@H](CCC(=O)O)NC(=O)[C@@H]2CCCN2C(=O)[C@H](Cc2ccc(O)cc2)NC(=O)[C@H](CCCNC(=N)N)NC(=O)[C@@H]2CCCN2C(=O)[C@H]([C@@H](C)O)NC(=O)[C@H](CCCNC(=N)N)NC(=O)[C@H](CCCCN)NC(=O)[C@H](Cc2ccc(O)cc2)NC(=O)[C@H](CC(C)C)NC(=O)CNC(=O)[C@H](Cc2c[nH]cn2)NC1=O
notes: Residues 161-185 of LIGHT with two residues substituted by cysteines for a disulfide bond; also called peptide 4; source: synthetic peptide (SPPS, RP-HPLC; disulfide bond formed by air oxidation)
B2: light3 (peptide)
peptide: Ac-TCTHGLYKRTPRYPEELELLVSQCS-NH2
modifications: disulfide 2-24
SMILES: CC(=O)N[C@H](C(=O)N[C@H]1CSSC[C@@H](C(=O)N[C@@H](CO)C(N)=O)NC(=O)[C@H](CCC(N)=O)NC(=O)[C@H](CO)NC(=O)[C@H](C(C)C)NC(=O)[C@H](CC(C)C)NC(=O)[C@H](CC(C)C)NC(=O)[C@H](CCC(=O)O)NC(=O)[C@H](CC(C)C)NC(=O)[C@H](CCC(=O)O)NC(=O)[C@H](CCC(=O)O)NC(=O)[C@@H]2CCCN2C(=O)[C@H](Cc2ccc(O)cc2)NC(=O)[C@H](CCCNC(=N)N)NC(=O)[C@@H]2CCCN2C(=O)[C@H]([C@@H](C)O)NC(=O)[C@H](CCCNC(=N)N)NC(=O)[C@H](CCCCN)NC(=O)[C@H](Cc2ccc(O)cc2)NC(=O)[C@H](CC(C)C)NC(=O)CNC(=O)[C@H](Cc2c[nH]cn2)NC(=O)[C@H]([C@@H](C)O)NC1=O)[C@@H](C)O
notes: Residues 161-185 of LIGHT with two residues substituted by cysteines for a disulfide bond; also called peptide 3; source: synthetic peptide (SPPS, RP-HPLC; disulfide bond formed by air oxidation)
B3: light3_E178L (peptide)
peptide: Ac-TCTHGLYKRTPRYPEELLLLVSQCS-NH2
modifications: disulfide 2-24
SMILES: CC(=O)N[C@H](C(=O)N[C@H]1CSSC[C@@H](C(=O)N[C@@H](CO)C(N)=O)NC(=O)[C@H](CCC(N)=O)NC(=O)[C@H](CO)NC(=O)[C@H](C(C)C)NC(=O)[C@H](CC(C)C)NC(=O)[C@H](CC(C)C)NC(=O)[C@H](CC(C)C)NC(=O)[C@H](CC(C)C)NC(=O)[C@H](CCC(=O)O)NC(=O)[C@H](CCC(=O)O)NC(=O)[C@@H]2CCCN2C(=O)[C@H](Cc2ccc(O)cc2)NC(=O)[C@H](CCCNC(=N)N)NC(=O)[C@@H]2CCCN2C(=O)[C@H]([C@@H](C)O)NC(=O)[C@H](CCCNC(=N)N)NC(=O)[C@H](CCCCN)NC(=O)[C@H](Cc2ccc(O)cc2)NC(=O)[C@H](CC(C)C)NC(=O)CNC(=O)[C@H](Cc2c[nH]cn2)NC(=O)[C@H]([C@@H](C)O)NC1=O)[C@@H](C)O
notes: Analogue of light3 (residues 161-185 of LIGHT with two cysteines for a disulfide bond) in which glutamic acid 178 was replaced by leucine; source: synthetic peptide (SPPS, RP-HPLC; disulfide bond formed by air oxidation)
B4: light1 (peptide)
peptide: Ac-EAGEEVVCRVLDERLVRLRDGTRSYCGAF[Nle]V-NH2
modifications: disulfide 8-26
SMILES: CCCC[C@H](NC(=O)[C@H](Cc1ccccc1)NC(=O)[C@H](C)NC(=O)CNC(=O)[C@@H]1CSSC[C@H](NC(=O)[C@@H](NC(=O)[C@@H](NC(=O)[C@H](CCC(=O)O)NC(=O)[C@H](CCC(=O)O)NC(=O)CNC(=O)[C@H](C)NC(=O)[C@H](CCC(=O)O)NC(C)=O)C(C)C)C(C)C)C(=O)N[C@@H](CCCNC(=N)N)C(=O)N[C@@H](C(C)C)C(=O)N[C@@H](CC(C)C)C(=O)N[C@@H](CC(=O)O)C(=O)N[C@@H](CCC(=O)O)C(=O)N[C@@H](CCCNC(=N)N)C(=O)N[C@@H](CC(C)C)C(=O)N[C@@H](C(C)C)C(=O)N[C@@H](CCCNC(=N)N)C(=O)N[C@@H](CC(C)C)C(=O)N[C@@H](CCCNC(=N)N)C(=O)N[C@@H](CC(=O)O)C(=O)NCC(=O)N[C@@H]([C@@H](C)O)C(=O)N[C@@H](CCCNC(=N)N)C(=O)N[C@@H](CO)C(=O)N[C@@H](Cc2ccc(O)cc2)C(=O)N1)C(=O)N[C@H](C(N)=O)C(C)C
notes: Fragment 210-240 of LIGHT with two residues substituted by cysteines for a disulfide bond; the synthesized peptide has norleucine there; also called peptide 1; source: synthetic peptide (SPPS, RP-HPLC; disulfide bond formed by air oxidation)
B5: light2 (peptide)
peptide: Ac-ECGEEVVVRVLDERLVRLRDGTRSYFGAFCV-NH2
modifications: disulfide 2-30
SMILES: CC(=O)N[C@@H](CCC(=O)O)C(=O)N[C@H]1CSSC[C@@H](C(=O)N[C@H](C(N)=O)C(C)C)NC(=O)[C@H](Cc2ccccc2)NC(=O)[C@H](C)NC(=O)CNC(=O)[C@H](Cc2ccccc2)NC(=O)[C@H](Cc2ccc(O)cc2)NC(=O)[C@H](CO)NC(=O)[C@H](CCCNC(=N)N)NC(=O)[C@H]([C@@H](C)O)NC(=O)CNC(=O)[C@H](CC(=O)O)NC(=O)[C@H](CCCNC(=N)N)NC(=O)[C@H](CC(C)C)NC(=O)[C@H](CCCNC(=N)N)NC(=O)[C@H](C(C)C)NC(=O)[C@H](CC(C)C)NC(=O)[C@H](CCCNC(=N)N)NC(=O)[C@H](CCC(=O)O)NC(=O)[C@H](CC(=O)O)NC(=O)[C@H](CC(C)C)NC(=O)[C@H](C(C)C)NC(=O)[C@H](CCCNC(=N)N)NC(=O)[C@H](C(C)C)NC(=O)[C@H](C(C)C)NC(=O)[C@H](C(C)C)NC(=O)[C@H](CCC(=O)O)NC(=O)[C@H](CCC(=O)O)NC(=O)CNC1=O
notes: Fragment 210-240 of LIGHT with two residues substituted by cysteines for a disulfide bond; also called peptide 2; source: synthetic peptide (SPPS, RP-HPLC; disulfide bond formed by air oxidation)

Target: T1, HVEM-His protein
Assay: spectral shift (SpS); Monolith X; HVEM-His labelled with His-Tag Labeling Kit RED-tris-NTA 2nd Generation, final 50 nM; peptides 2 µM to 6.1 pM; PBS-T (0.05% Tween-20, 0.3 M NaCl, pH 7.4); fluorescence ratio 670/650 nm; 25 °C; apparent Kd (peptides aggregated at higher concentrations)
Conditions: both partners purified

| Kd | Molecule |
| --- | --- |
| 1.72 µM | B1 |
| 0.58 µM | B2 |
| 0.71 µM | B3 |
| 1.68 µM | B4 |
| 1.38 µM | B5 |

Test system: HVEM/LIGHT complex
Assay: Competitive ELISA, inhibition of HVEM/LIGHT complex formation
Type: biochemical, human
Conditions: across all tested concentrations (50, 12.5, 3.125 µM)
Experimental: To assess the inhibitory properties of the peptides the ELISA was conducted. Based on the obtained results, it can be concluded that the inhibitory properties of the peptides are strongly correlated with their affinity to HVEM as determined by theoretical methods, as well as with those measured by SpS.
ELISA was conducted using transparent polystyrene 96-well plates (Brand, Wertheim, Germany). Wells were coated with HVEM-His protein at concentration 6 µg/mL dissolved in PBS-T (100 µL per well) and incubated overnight at 4 °C. Unbound sites on the wells by HVEM were blocked with 5% bovine serum albumin (BSA) in PBS-T (200 µL per well). Peptides at three concentrations 50 µM, 12.5 µM, and 3.125 µM dissolved in PBS-T were added and incubated (200 µL per well). […] In the next step horseradish peroxidase (HRP)-conjugated goat antibody (Bio-Rad, Hercules, USA) at dilution 1:3000 in PBS-T (100µL per well) was applied. After each step, wells were washed five times with 200 µL of PBS-T. Incubations were carried out at 37 °C for 2 h, except for the antibody, which was incubated for 1 h. Finally, 200 µL of TMB substrate (Thermo Fisher Scientific,Waltham, MA, USA) was added, and after 15 min of incubation in the dark, absorbance was measured at 492 nm and 650 nm using an Infinite M200 Pro reader (Tecan, Switzerland). The negative control consisted of PBS-T buffer without peptides, while the positive control was mouse anti-human HVEM antibodies (1 µg/well, Bio-Rad, Hercules, CA, USA; #MCA6072GA). Each experiment was performed in three biological replicates, each consisting of three technical replicates and data were analyzed using one-way ANOVA with Dunnett’s post-hoc test in GraphPad Prism (San Diego, USA).

| Molecule | inhibition of HVEM/LIGHT complex formation |
| --- | --- |
| CC[C@H](C)[C@H](NC(=O)[C@@H](NC(C)=O)[C@@H](C)O)C(=O)N[C@H]1CSSC[C@@H](C(=O)N[C@@H](CCC(N)=O)C(=O)N[C@@H](CO)C(N)=O)NC(=O)[C@H](CO)NC(=O)[C@H](C(C)C)NC(=O)[C@H](CC(C)C)NC(=O)[C@H](CC(C)C)NC(=O)[C@H](CCC(=O)O)NC(=O)[C@H](CC(C)C)NC(=O)[C@H](CCC(=O)O)NC(=O)[C@H](CCC(=O)O)NC(=O)[C@@H]2CCCN2C(=O)[C@H](Cc2ccc(O)cc2)NC(=O)[C@H](CCCNC(=N)N)NC(=O)[C@@H]2CCCN2C(=O)[C@H]([C@@H](C)O)NC(=O)[C@H](CCCNC(=N)N)NC(=O)[C@H](CCCCN)NC(=O)[C@H](Cc2ccc(O)cc2)NC(=O)[C@H](CC(C)C)NC(=O)CNC(=O)[C@H](Cc2c[nH]cn2)NC1=O [light4] (Ac-TICHGLYKRTPRYPEELELLVSCQS-NH2; disulfide 3-23) | below 10% |
